Results on 2 molecules are retold here after article PMC4924860, “Environmental Factors Modulating the Stability and Enzymatic Activity of the Petrotoga mobilis Esterase (PmEst)” (PLoS ONE, 2016).

In data set [1] the target is Petrotoga mobilis esterase (PmEst) (Petrotoga mobilis). Put plainly: SEC; Superdex 200 10/300 GL column, calibrated with carbonic anhydrase, ovalbumin, bovine serum albumin, conalbumin and aldolase; purified PmEst in aqueous solution. In general terms: SEC sorts molecules by how far they enter the pores of the column.
Substrate in data set [2]: CC(=O)Oc1ccc([N+](=O)[O-])cc1
Put plainly: purified protein. It counts as biochemical, Petrotoga mobilis. The conditions noted are these: 10 mM sodium phosphate pH 7.4, 500 nM enzyme, acetonitrile from substrate stock, temperature of the kinetics not stated.

Substrate in data set [3]: CCCC(=O)Oc1ccc([N+](=O)[O-])cc1
Put plainly: purified protein. Format: biochemical, Petrotoga mobilis. The following applies: 10 mM sodium phosphate pH 7.4, 500 nM enzyme, acetonitrile from substrate stock, temperature of the kinetics not stated.

Take “Petrotoga mobilis esterase (PmEst) (enzyme)”: the stoichiometry N in data set [1] came out at 3.

B1: PmEst (Petrotoga mobilis SJ95) (protein)
chain: MALLEVNFMSRSLMRKVPIMVVLPMDKANLSGKSEITDNDNNTFKTLYLLHGIFGNYSDWVSETRIQRLAEGRNLAVVMPSGENSFYLDQPESGNFYGEFIGRELVNITRKMFPLSRKKEDTFIAGLSMGGYGAIRNGLKYHETFGCVAGLSSALNFEQMLDESYQVIACKKSAFGDPKEAILSDKNPKVLVKNIKENPLGQFPKMYMACGTEDNLINSNRDFRDFLIENNVDLTYEEGPGAHTWEFWDTYIEKVLDWLPLKKPS
notes: synthetic gene, modified pET28a, N-terminal His6-SUMO fusion cut by SUMO protease; E. coli Rosetta (DE3); PFAM PF00756 esterase
As for B1, in “purified protein [2]”, the Km came out at 1430 ± 170 µM, the kcat came out at 29.2 ± 1.2 s⁻¹ and the kcat/Km stood at 20500 ± 1600 M⁻¹ s⁻¹. For the same molecule, in “purified protein [3]”, the Km worked out at 160 ± 10 µM, the kcat was found to be 14.1 ± 0.29 s⁻¹ and the kcat/Km was determined as 88100 ± 6000 M⁻¹ s⁻¹.

For orientation: stoichiometry N means a count of units in the complex or per binding partner. By Km is commonly meant the concentration of substrate that gives half-maximal velocity. For orientation: kcat means the maximal rate divided by the concentration of active sites. As usually defined, the kcat/Km is the second-order rate constant that governs catalysis at low substrate concentration.
